Key:
[1] = target: T1, deltaNp73delta isoform WT (UniProt O15350-4 63-403); assay: fluorescence polarization; FP: 50 nM fluorescein-DNA, 0-20000 nM protein, 30 min on ice then room temperature; buffer, salt and pH not stated. Crystals: 0.1 M Tris pH 8.5, 50-125 mM sodium acetate, 20-24% PEG 3350, room temperature; settings: protein: recombinant, chain copies: 4, label: fluorescein
T1 sequence: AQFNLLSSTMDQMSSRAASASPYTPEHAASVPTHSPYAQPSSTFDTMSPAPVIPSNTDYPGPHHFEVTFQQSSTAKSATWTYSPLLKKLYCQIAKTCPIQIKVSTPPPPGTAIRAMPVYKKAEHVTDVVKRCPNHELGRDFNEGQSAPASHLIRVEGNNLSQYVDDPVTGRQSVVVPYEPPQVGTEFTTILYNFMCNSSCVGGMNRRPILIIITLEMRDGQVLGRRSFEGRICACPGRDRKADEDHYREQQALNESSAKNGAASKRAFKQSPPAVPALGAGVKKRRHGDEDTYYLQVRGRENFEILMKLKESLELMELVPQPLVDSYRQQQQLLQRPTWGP

[2] = target: T2, p73 DBD S139F (human, UniProt O15350 115-312, S139F); assay: fluorescence polarization; Hill 1.7 ± 0.1; FP: 50 nM fluorescein-DNA, 0-20000 nM protein, 30 min on ice then room temperature; buffer, salt and pH not stated. Crystals: 0.1 M Tris pH 8.5, 50-125 mM sodium acetate, 20-24% PEG 3350, room temperature; settings: protein: recombinant; chain copies: 2; label: fluorescein; self-complementary
T2 sequence: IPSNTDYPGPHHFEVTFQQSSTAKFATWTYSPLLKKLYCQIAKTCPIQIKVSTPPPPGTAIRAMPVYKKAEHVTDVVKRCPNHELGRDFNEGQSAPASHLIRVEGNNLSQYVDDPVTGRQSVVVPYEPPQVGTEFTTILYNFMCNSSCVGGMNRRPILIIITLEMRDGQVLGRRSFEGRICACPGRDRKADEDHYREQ

[3] = target: the molecule itself; assay: crystal structure; p73DBD S139F mixed at 2:1 molar ratio with annealed 20 bp DNA (…); hanging drop, 0.1 M Tris pH 8.5, 50-125 mM sodium acetate, 20-24% PEG 3350, room temperature; 3.7 A; asymmetric unit holds two protein molecules and one 10 bp half-site, the tetramer is made by crystal symmetry
[4] = target: T2, p73 DBD S139F; assay: fluorescence polarization; Hill 1.5 ± 0.2; FP: 50 nM fluorescein-DNA, 0-20000 nM protein, 30 min on ice then room temperature; buffer, salt and pH not stated. Crystals: 0.1 M Tris pH 8.5, 50-125 mM sodium acetate, 20-24% PEG 3350, room temperature; settings: protein: recombinant; chain copies: 2; label: fluorescein; self-complementary
[5] = target: T2, p73 DBD S139F; assay: fluorescence polarization; Hill 1.9 ± 0.2; FP: 50 nM fluorescein-DNA, 0-20000 nM protein, 30 min on ice then room temperature; buffer, salt and pH not stated. Crystals: 0.1 M Tris pH 8.5, 50-125 mM sodium acetate, 20-24% PEG 3350, room temperature; settings: protein: recombinant; chain copies: 2; label: fluorescein

B1: 20mer GAACA full-site (0/4 RY) (dsDNA)
DNA 1: GAACATGTTCGAACATGTTC
DNA 2: GAACATGTTCGAACATGTTC
Kd ([1]; self-complementary): 940 nM
Kd [2]: 4480 nM

B2: p73DBD S139F (human p73 DNA-binding domain, residues 115-312, S139F mutant) (domain or fragment, UniProt O15350 115-312, looked up)
chain: T2 sequence
notes: Crystallised with a 20 bp GAACA full-site DNA; On the DNA it forms a tetramer (dimer of dimers); also called p73 S139F DBD; S139F DBD mutant
stoichiometry N [3]: 4

B3: 12mer GGGCA half-site (dsDNA)
DNA 1: TGGGCATGCCCA
DNA 2: TGGGCATGCCCA
Kd [4]: 1540 nM

B4: 20mer GGGCA full-site (4/4 RY) (dsDNA)
DNA 1: GGGCATGCCCGGGCATGCCC
DNA 2: GGGCATGCCCGGGCATGCCC
Kd [1]: 160 nM
Kd [5]: 230 nM
